Data reported in patent publication WO2020216210A1 (dated 2020).

T1: human EpCAM full-length protein (on MCF-7 and A431 cells) (human, UniProt P16422 24-314)
T1 construct: Endogenous EpCAM on the cell lines MCF-7 and A431 (ATCC); also called CD326; epithelial cell adhesion molecule
T1 sequence: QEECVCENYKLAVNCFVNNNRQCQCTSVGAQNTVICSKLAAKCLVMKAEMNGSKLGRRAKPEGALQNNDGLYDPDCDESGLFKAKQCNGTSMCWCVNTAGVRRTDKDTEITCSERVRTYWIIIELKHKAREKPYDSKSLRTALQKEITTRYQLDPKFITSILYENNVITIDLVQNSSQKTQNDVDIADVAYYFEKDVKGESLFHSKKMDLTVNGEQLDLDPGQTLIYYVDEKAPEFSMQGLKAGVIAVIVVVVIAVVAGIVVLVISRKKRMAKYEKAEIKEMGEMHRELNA


Molecular target: T1, human EpCAM full-length protein (on …)
Test: flow cytometry (FACS) on MCF-7 and A431 cells, Alexa Fluor 488 goat anti-human IgG detection

Row | Binder | binding result
1 | fully human antibody h1905 (antibody, human IgG1, kappa, V domains shown, Complete antibody VH-CH1-FC/VL-CL built from a phage scFv) VH: QMQLVQSGAEVKKPGASVKVSCKASGYTFTSYDINWVRQATGQGLEWMGWMNPNSGNTGYAQKFQGRVTMTRNTSISTAYMELSSLRSEDTAVYYCARGVVVVVAATRGHYYYYYGMDVWGQGTTVTVSS VL: DIQMTQSPSSLSASIGDRVSMTCRASQSVTKYLNWYQQTPGKPPKLLIFSASHLQTGVPSRFSGSGSGTDFTLTIDSLQPEDVATYYCQQSYSTPFTFGQGTKVEIKR | binds
2 | fully human antibody h1907 (antibody, human IgG1, kappa, V domains shown, Complete antibody VH-CH1-FC/VL-CL built from a phage scFv) VH: QVTLKESGPTLVKPTQTLTLTCTFSGFSLSTSGVAVGWIRQPPGKALEWLALIYWDADTRYSPSLKSRLTITKDTSKNQVVLTMTNMDPVDTATYYCAHRPHGSGSYYAFDYWGQGILVTVSS VL: DIVMTQSPSSLSASVGDRVTISCRASQNIRNYLNWYQHRPGEAPKLLISGVSRLQNGVPSRFSGSGSGTDFTLTIRSLQSEDFATYYCQQSYINWTFGQGTKVEIKR | binds
